Results reported in article PMC10343505 (Molecules, 2023).
Where a SMILES comes first, the peptide text is derived from it. The star is where a group is joined. Galloyl = O=C(c1cc(O)c(O)c(O)c1)*

How the values were obtained:
[1] = system: Vero cells; assay: Cytotoxicity profile, WST-1 viability assay; type: cell-based, African green monkey; conditions: 72 h; for CC50 (50% cytotoxic concentration in VERO cells): WST-1, non-linear regression of dose-response curve; for maximum non-toxic concentration: arbitrary threshold of 80% cell viability, range 80-0.62 µM
Experimental: To understand the effect of GA-Hecate and N-terminal-GA-metabolites on host cells, we tested them at a range of concentrations (80–0.62 µM) on Vero cells. Considering the arbitrary threshold of 80% cell viability, GA-Hecate, and GA-metabolite 5 reached their maximum non-toxic concentration at 40 µM (Figure 2).
Figure 2 Compound effects on Vero cells. Vero cells were incubated with different concentrations of GA-peptides. At 72 h post treatment, cell viability was determined by WST viability assay and the values are plotted as those relative to the control. Bars represent triplicate samples of three independent assays. *** p < 0.001. Comparison control vs. concentration. Water, the GA-peptide vehicle, was used as a negative control. Red dotted lines represent the arbitrary threshold of 80% cell viability.
The cytotoxicity profile of GA-Hecate and GA-metabolites. Peptide cytotoxicity profiles were measured using the WST-1 (4-[3-(4-iodophenyl)-2-(4-nitrophenyl)-2H-5-tetrazolio]-3-benzene disulfonate) cell proliferation reagent. A total of 24 h before treatment, 7 × 10^3 Vero cells/well were cultured with supplemented DMEM in a 96-multi-well plate and incubated at 37 °C in a humidified 5% CO2 incubator. The next day, the peptide-containing medium was added at the following final concentrations: 80; 40; 20; 10; 5; 2.5; 1.25, and 0.625 µM. After 72 h of incubation, peptide medium was removed, and WST-1 at a dilution of 1:10 was added to the wells and incubated for 30 min. Absorbance was measured at 450 nm, using a plate reader spectrophotometer.

[2] = Water solubility of synthesized compounds; type: physicochemical; conditions: concentration of 1 mg/mL in pure water
Experimental: The Hecate N-terminal fragments found in the serum stability experiment were selected to conjugate with gallic acid, like that in the GA-Hecate structure, where GA is coupled at the N-terminal region. Bioconjugates were synthesized using solid-phase methods and, after purification, their purity and identities were determined by high-performance liquid chromatography and mass spectrometry, respectively (see Supplementary Information). GA-metabolite 6 was not water-soluble and therefore was not considered for further biological evaluation.

[3] = system: Vero cells; assay: Cell toxicity during constant treatment (cell count, WST-1); type: cell-based, African green monkey; conditions: 20 µM for 3 and 7 days
Experimental: We next assessed the effect, if any, of our peptides on cell growth, which in turn could affect virus replication. Vero cells in culture flasks were propagated in the presence or absence of 20 µM each of GA-peptides for 3 and 7 days. At this time point, viable cells were counted following incubation with trypsin using the automated cell counter Scepter^TM (Millipore), and cell shape was monitored using phase-contrast microscopy. Then, 7 × 10^3 cells were seeded per well of a 96-well plate, incubated for 24 h, and cell viability was measured using the WST-1 viability reagent (Figure 9c,d). […] This was consistent with the lower cell viability found for GA-Hecate-treated cells (65% of the control, Figure 9c).
Figure 9 Effect of peptides on Vero. (a) Cells were treated with 20 µM each of the peptides and cell counts determined at 3 and 7 days (a) during or (b) after treatment, as described in the text. (c,d) depict the cell viability counts from (a,b), respectively, shown as plots. Bars represent triplicate samples of three independent assays. *** p < 0.001. […]
GA-Hecate and GA-metabolite cell toxicity during constant treatment. […] Absorbance was measured at 450 nm, using a plate reader spectrophotometer. […] Cell images were obtained using a confocal microscope and the number of cells/mL was automatically measured using the automated cell counter Scepter^TM (Millipore). […]

[4] = system: ZIKV strain MP1751; assay: Virucidal assay, micro-neutralization; type: cell-based, Zika virus; conditions: virus pre-incubated 1 h, 72 hpi, Vero
Experimental: We next tested the virucidal effect of GA-Hecate and GA-metabolite 5 at concentrations of 20 µM and 40 µM on ZIKV strain MP1751 as described above. Again, we found a modest effect of GA-Hecate at 40 µM on ZIKV strain MP1751 replication. […] Given the latter result, the combination was not tested.
Sandwich ELISA to assess ZIKV infectivity (micro-neutralization). This assay was performed as described previously by Lopez-Chamaco et al., 2018. Briefly, at 72 h post-treatment (h.p.i.) the infected cell medium was removed, and cells were washed with PBS and then lysed with lysis buffer (20 mM Tris-HCl (pH 7.4), 20 mM iodoacetamide, 150 mM NaCl, 1 mM EDTA, and 0.5% Triton X-100) containing protease inhibitors. The lysis solution was transferred to an Immunolon® plate pre-coated with 3 µg/mL of purified pan-flavivirus MAb D1-4G2-4-15 (ATCC® HB112TM, herein referred to as 4G2) in PBS and incubated at room temperature for 1 h. […] After washing with PBST, 100 µL of TMB solution (Life Technologies) was added and the reaction stopped at 30 min with 50 µL of 0.5 M H2SO4 solution added and read at 450 nm using a plate reader spectrophotometer (ELISA).
Entry step assessment of GA-Hecate and GA-metabolites on Zika Virus. […] The levels of virus replication were determined using micro-neutralization as described above. […]

[5] = fresh human serum; conditions: 37 °C, up to 20 min
[6] = Serum stability, mass spectrometry; type: in vitro ADME; conditions: 100 µL of 1 mg/mL peptide + 100 µL fresh human serum, 37 °C, 20 min, ethanol precipitation, ESI mass spectrometry
Experimental: The GA-Hecate peptide has shown promising efficacy in antiviral assays, but its stability and target selectivity are yet to be determined. An understanding of these properties is crucial for the future progression of the peptide for therapeutic end use. To evaluate its stability, the Hecate peptide was incubated in freshly prepared human blood serum at 37 °C for 20 min. Mass spectrometry was then employed to identify breakdown products (metabolites) (Supplementary Figure S1).
Serum stability. A total of 100 µL of a solution containing 1 mg/mL of Hecate peptide was incubated at 37 °C with 100 µL of fresh human serum for 20 min. Then, 200 µL of 96% ethanol solution in water was added to the mixture, which was centrifuged, and the supernatant was analysed by mass spectrometry as described below. Water was used as a negative control for samples without serum (Supplementary Figure S1).
Mass spectrometry. Compound solutions were analysed by mass spectrometry using a Bruker spectrometer in electrospray positive mode with direct injection. Spectra were analysed with the help of Spectra Analysis Software using the relationship between molecular weight (m) and charge (z) (m/z). Fragments of Hecate were identified, and the amino acid sequence was determined by m/z comparison.

Molecule | CC50 (50% cytotoxic concentration in VERO cells) [1] [µM] | Water Solubility [2] | maximum non-toxic concentration ([1]; Vero cells, WST) [µM] | other results
CC(C)C[C@H](NC(=O)[C@H](C)NC(=O)[C@H](CCCCN)NC(=O)[C@H](CCCCN)NC(=O)[C@H](CC(C)C)NC(=O)[C@H](C)NC(=O)[C@H](CCCCN)NC(=O)[C@H](CC(C)C)NC(=O)[C@H](C)NC(=O)[C@H](CC(C)C)NC(=O)[C@H](C)NC(=O)[C@H](Cc1ccccc1)NC(=O)c1cc(O)c(O)c(O)c1)C(=O)O [GA-Metabolite 7] (Galloyl-FALALKALKKAL-OH) | >80.0 | Soluble | – | cytotoxic effect ([1]; Vero cells, WST, all tested concentrations 80-0.62 µM): did not show any cytotoxic effect
CC(C)C[C@H](NC(=O)[C@H](CCCCN)NC(=O)[C@H](CCCCN)NC(=O)[C@H](CC(C)C)NC(=O)[C@H](C)NC(=O)[C@H](CCCCN)NC(=O)[C@H](CCCCN)NC(=O)[C@H](CC(C)C)NC(=O)[C@H](C)NC(=O)[C@H](CCCCN)NC(=O)[C@H](CC(C)C)NC(=O)[C@H](C)NC(=O)[C@H](CC(C)C)NC(=O)[C@H](C)NC(=O)[C@H](Cc1ccccc1)NC(=O)c1cc(O)c(O)c(O)c1)C(=O)O [GA-Metabolite 5] (Galloyl-FALALKALKKALKKL-OH) | >70.0 | Soluble | 40 | cell viability [3]: did not have any effect on cell viability or cell shape; virucidal inhibition ([4]; 20 µM): 98.5%; virucidal inhibition ([4]; 40 µM): 98.5%
H3^+N-FALALKALKKALKKLKKALKKAL-CONH2 | – | – | – | cleaved bond [5]: L-K, major, 20 min
CC(C)C[C@H](NC(=O)[C@H](C)NC(=O)[C@H](CCCCN)NC(=O)[C@H](CCCCN)NC(=O)[C@H](CC(C)C)NC(=O)[C@H](C)NC(=O)[C@H](CCCCN)NC(=O)[C@H](CCCCN)NC(=O)[C@H](CC(C)C)NC(=O)[C@H](CCCCN)NC(=O)[C@H](CCCCN)NC(=O)[C@H](CC(C)C)NC(=O)[C@H](C)NC(=O)[C@H](CCCCN)NC(=O)[C@H](CCCCN)NC(=O)[C@H](CC(C)C)NC(=O)[C@H](C)NC(=O)[C@H](CCCCN)NC(=O)[C@H](CC(C)C)NC(=O)[C@H](C)NC(=O)[C@H](CC(C)C)NC(=O)[C@H](C)NC(=O)[C@@H](N)Cc1ccccc1)C(N)=O [Hecate] (H-FALALKALKKALKKLKKALKKAL-NH2) | – | – | – | stability in human blood serum [6]: degraded in human blood serum into three major metabolites
CC(C)C[C@H](NC(=O)[C@H](C)NC(=O)[C@H](CCCCN)NC(=O)[C@H](CCCCN)NC(=O)[C@H](CC(C)C)NC(=O)[C@H](C)NC(=O)[C@H](CCCCN)NC(=O)[C@H](CCCCN)NC(=O)[C@H](CC(C)C)NC(=O)[C@H](CCCCN)NC(=O)[C@H](CCCCN)NC(=O)[C@H](CC(C)C)NC(=O)[C@H](C)NC(=O)[C@H](CCCCN)NC(=O)[C@H](CCCCN)NC(=O)[C@H](CC(C)C)NC(=O)[C@H](C)NC(=O)[C@H](CCCCN)NC(=O)[C@H](CC(C)C)NC(=O)[C@H](C)NC(=O)[C@H](CC(C)C)NC(=O)[C@H](C)NC(=O)[C@H](Cc1ccccc1)NC(=O)c1cc(O)c(O)c(O)c1)C(N)=O [GA-Hecate] (Galloyl-FALALKALKKALKKLKKALKKAL-NH2) | >70.0 | Soluble | 40 | –
CC(C)C[C@H](NC(=O)[C@H](C)NC(=O)[C@H](CCCCN)NC(=O)[C@H](CC(C)C)NC(=O)[C@H](C)NC(=O)[C@H](CC(C)C)NC(=O)[C@H](C)NC(=O)[C@H](Cc1ccccc1)NC(=O)c1cc(O)c(O)c(O)c1)C(=O)O [GA-Metabolite 6] (Galloyl-FALALKAL-OH) | – | Not soluble | – | –
